From patent US20060142189A1 (MOUNT SINAI SCHOOL OF MEDICINE OF NEW YORK UNIVERSITY, published 2006)
Ends that are not written are not given here. * marks the point of attachment. Biotin = O=C1N[C@H]2[C@H](CS[C@H]2CCCCC(=O)*)N1

Biological target: ankyrin B (endogenous in ND-7 cells)
Assay: cell-based or functional assay

Biotin-RQIKIWFQNRRMKWKKQFNEDGSFIGQF [AP-YF peptide]
velocity of L1-CAM directed movement on the cell surface, against cells treated with control peptide or untreated cells: 2 fold
